Results on 3 molecules are retold here after patent US20180305414A1.

The target in test [1] is Fab prepared by papain treatment of human IgG (human). Kind of test: binding capacity; Capto L resin, 20 mg/mL human Fab, acid elution, A280.
The target of test [2] is human IgG (available from the Chemo-Sero-Therapeutic Research Institute) (human). Kind of test: binding capacity; Capto L resin, human IgG, acid elution, A280.
Test [3] shares this target. Kind of test: binding capacity against Capto L.
Test [4] addresses Fab prepared by papain treatment of human IgG (human). Kind of test: binding capacity against Capto L.
For test [5] the target is unchanged. Kind of test: binding capacity; binder immobilised on agarose gel, 20 mg/mL human Fab, acid elution, A280.
In test [6] the target is human IgG (available from the Chemo-Sero-Therapeutic Research Institute) (human). Nature of the test: binding capacity; binder immobilised on agarose gel, human IgG, acid elution, A280.
Test [7] shares this target. Nature of the test: binding capacity; binder immobilised on agarose gel, human IgG.

“Capto L (GE Healthcare KK) having a tetramer (Protein L) with the native sequence immobilized thereon” showed a Fab Binding Capacity in test [1] of 30.9 mg/mL gel. In test [2], this molecule showed an IgG Binding Capacity of 43.6 mg/mL gel.

B1: tetrameric multidomain polypeptide PL-424 (four linked modified domains of PL-024) (designed binder)
chain: AQHDEAGLALETPEEPREEVTIRVNLIFADGRTQTAEFRGTFEEATAEAYRYADLLARVNGEYTADLEDGGYTINIRFAGALETPEEPREEVTIRVNLIFADGRTQTAEFRGTFEEATAEAYRYADLLARVNGEYTADLEDGGYTINIRFAGALETPEEPREEVTIRVNLIFADGRTQTAEFRGTFEEATAEAYRYADLLARVNGEYTADLEDGGYTINIRFAGALETPEEPREEVTIRVNLIFADGRTQTAEFRGTFEEATAEAYRYADLLARVNGEYTADLEDGGYTINIRFAGALPSKSKKILKEAKKLNKAQAPKKKK
On to B1, for which, in test [3], the amount of bound IgG relative to Capto L is 2.2 times. The amount of bound Fab fragment relative to Capto L in test [4] is 2.4 times. Moreover, the Fab Binding Capacity in test [5] was found to be 72.4 mg/mL gel. The molecule further registered an IgG Binding Capacity in test [6] of 91.6 mg/mL gel. The molecule also displayed a human IgG binding capacity relative to PL-024 in test [7] of 144%.

B2: hexameric multidomain polypeptide PL-624 (six linked modified domains of PL-024) (designed binder)
chain: AQHDEAGLALETPEEPREEVTIRVNLIFADGRTQTAEFRGTFEEATAEAYRYADLLARVNGEYTADLEDGGYTINIRFAGALETPEEPREEVTIRVNLIFADGRTQTAEFRGTFEEATAEAYRYADLLARVNGEYTADLEDGGYTINIRFAGALETPEEPREEVTIRVNLIFADGRTQTAEFRGTFEEATAEAYRYADLLARVNGEYTADLEDGGYTINIRFAGALETPEEPREEVTIRVNLIFADGRTQTAEFRGTFEEATAEAYRYADLLARVNGEYTADLEDGGYTINIRFAGALETPEEPREEVTIRVNLIFADGRTQTAEFRGTFEEATAEAYRYADLLARVNGEYTADLEDGGYTINIRFAGALETPEEPREEVTIRVNLIFADGRTQTAEFRGTFEEATAEAYRYADLLARVNGEYTADLEDGGYTINIRFAGALPSKSKKILKEAKKLNKAQAPKKKK
In test [3], B2 displayed an amount of bound IgG relative to Capto L of 2.2 times. The molecule further returned an amount of bound Fab fragment relative to Capto L in test [4] of 2.4 times. The Fab Binding Capacity in test [5] amounted to 75.9 mg/mL gel. In test [6], this molecule gave an IgG Binding Capacity of 95.8 mg/mL gel. In addition, the human IgG binding capacity relative to PL-024 in test [7] amounted to 151%.
